Experimental data taken from patent US20180256731A1, “NOVEL INSULIN ANALOG AND USE THEREOF” (HANMI PHARM. CO., LTD, priority 2013, published 2018).

What was measured:
Insulin receptor [1] = experiment: SPR (BIACORE 3000), receptor on CM5 chip; Test 1
Insulin receptor [2] = experiment: SPR (BIACORE 3000), receptor on CM5 chip; Test 2
Insulin receptor [3] = experiment: SPR (BIACORE 3000), receptor on CM5 chip; Test 3
Insulin receptor [4] = experiment: SPR (BIACORE 3000), receptor on CM5 chip; Test 5
Insulin receptor [5] = experiment: SPR (BIACORE 3000), receptor on CM5 chip; Test 4

## Native human insulin (ligand)
Insulin receptor [1]
  koff: 0.00747 s⁻¹
  kon: 221000 M⁻¹ s⁻¹
Insulin receptor [2]
  koff: 0.0101 s⁻¹
  kon: 229000 M⁻¹ s⁻¹
Insulin receptor [3]
  Kd: 63.5 nM
  koff: 0.0107 s⁻¹
  kon: 176000 M⁻¹ s⁻¹
Insulin receptor [4]
  koff: 0.0097 s⁻¹
  kon: 200000 M⁻¹ s⁻¹
Insulin receptor [5]
  koff: 0.0124 s⁻¹
  kon: 290000 M⁻¹ s⁻¹
